Paper PMC7472637

Assays:
Test in all cases: in vivo oligomerization (SDS-PAGE of cell lysates ± DTT, anti-FLAG Western blot)
[1] = molecular target: HapR-R37A, C-terminal FLAG-tagged (Vibrio cholerae)
[2] = molecular target: HapR, wild type, C-terminal FLAG-tagged (Vibrio cholerae)
[3] = molecular target: HapR-R37H, C-terminal FLAG-tagged (Vibrio cholerae)
[4] = molecular target: HapR-R37E, C-terminal FLAG-tagged (Vibrio cholerae)
[5] = molecular target: HapR-R37D, C-terminal FLAG-tagged (Vibrio cholerae)

## HapR-R37A, C-terminal FLAG-tagged (natural protein)
[1]
  stoichiometry N: 2

## HapR, wild type, C-terminal FLAG-tagged (natural protein)
[2]
  stoichiometry N: 2

## HapR-R37H, C-terminal FLAG-tagged (natural protein)
[3]
  stoichiometry N: 2

## HapR-R37E, C-terminal FLAG-tagged (natural protein)
[4]
  stoichiometry N: 2

## HapR-R37D, C-terminal FLAG-tagged (natural protein)
[5]
  stoichiometry N: 2
